Results: patent publication WO2005054294A2 (dated 2005)

Target: T1, human platelet glycoprotein VI (human, UniProt Q9HCN6 21-339)
T1 sequence (looked up): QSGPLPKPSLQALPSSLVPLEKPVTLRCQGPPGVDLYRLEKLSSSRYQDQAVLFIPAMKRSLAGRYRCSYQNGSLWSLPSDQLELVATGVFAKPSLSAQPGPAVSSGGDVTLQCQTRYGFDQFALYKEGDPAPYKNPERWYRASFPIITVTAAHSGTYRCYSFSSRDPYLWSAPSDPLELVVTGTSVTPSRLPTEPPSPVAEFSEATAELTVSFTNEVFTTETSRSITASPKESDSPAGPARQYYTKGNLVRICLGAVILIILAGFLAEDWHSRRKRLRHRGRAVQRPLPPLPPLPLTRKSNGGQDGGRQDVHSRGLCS
Assay: cell-based or functional assay

B1: hGP 5C4 Fab (Fab, V domains shown)
VH: EVKLQESGGGLVQPGRSLKLSCTASGFTFSDYFMSWVRQAPTRGLEWVASISSGGASAYWRDSVKGRFTISRDNAKSALYLQMDSLRSEDTATYFCARGELDFDYWGQGVMVAVSS
VL: ADPNSTLLSASVGDRVTLNCTASQNVYKNLAWYQQKLGEAPRLLLYSANSQTGIPSRFSGSGSGPDFTLTISSLQPEDVASYFCQQYYSGNTFGAGTKLELKR
  IC50 of inhibition of collagen-induced (3 ug/ml) human platelet aggregation ex vivo: 0.12 µg/mL
